This is an account of results in the nanobody polyreactivity screen of Harvey et al. (2022).

This data set can be described thus: yeast display, Sf9 membrane polyspecificity reagent, FACS + sequencing; frameworks hold sequencing errors. An outline of the steps: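 Genes from sorted yeast were amplified by colony PCR, read by MiSeq 2 × 250 sequencing and filtered on CDR length. These cells carried a synthetic nanobody library in Saccharomyces cerevisiae BJ5465 and were sorted by FACS into low and high (top ~1%) gates on anti-HA and streptavidin fluorescence. Polyreactivity is labelled according to the gate of origin.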
Regarding “QVQLVESGGGLVQAGGSLRLSSAASGRIFYRNAMGWYRQAPGKERELVASITSGGRTNYADSVKGRFTFSRDNAKNTVYLHMNSLKPEDTAVYYCAAPPPYSVRTFRFYYWGQGTQVTVSA”, the “polyreactivity (PSR sort gate)” value is “high polyreactivity”. In the case of “QVQLVESGGGLVQAGGSLRLSSAASGRTFEGYAMGWYRQAPGKERELVAAISGSSGSTYYADSVKGRFTISRDNAKNTVYLQMNSLKPEDTAVYYCNADYDWPGGSDYWGQGTQVTVSS”, the “polyreactivity (PSR sort gate)” value is “low polyreactivity”. Regarding “QVQLVESGGGLVQAGGSLRLSSAASGRTFFGYAMGCYRQAPGTERELVAVISYSDGSTYYADSVKGRFTISRDNAKNTVYLQMNSLKPEDTAVYYCNARSRVGNSGADYDYWGQGTQETVSS”, the “polyreactivity (PSR sort gate)” value is “low polyreactivity”. The value for “QVQLVESGGGLVQAGGSLRLSSAASGRTFGFYAMGCYRQAHGKERELVATISSSGGSTYYADSVKGRFTISRDNAKNTVYLQMNRLTPEDTAVYYCAKVVSVWRSHYIGDYWGQGSQVTVSS” was “low polyreactivity”; that for “QVQLVESGGGLVQAGGSLRLSSAASGRTFGKYAMGWYRQAPGKESELVAAITNSGGSTYYADSVKGRFTISRDNAKNTVYLQMISLKPEDTAVYYCNRLGYRGPSILNHMGYWGQGTQVTVSS” was “high polyreactivity”; that for “QVQLVESGGGLVQAGGSLRLSSAASGRTFPTYTIGGYRQAPGKERELVAAITRGGSTKYADSVKGRFTISRDNAKNTVYLQMNSLKPEDTAVYYCAAVYRYRHSFAYYRHEMDYWGQGTQVTVSS” was “low polyreactivity”. For “QVQLVESGGGLVQAGGSLRLSSAASGRTFSRYVMGWSRQAPGKERELVATISRSGGSTFYADSVKGRFTISRDNAKNTVYLQMNSLKPEDTAVYYCNKKVQGYQVTYGYWGQGTQVTVSS”, the “polyreactivity (PSR sort gate)” value is recorded as “high polyreactivity”.

Turning to “QVQLVESGGGLVQAGGSLRLSSAASGRTFWNNAMGWYRQAPGKERELVAAITSGGRTNYADSVKGRFTISRDNAKNTVYLQMNSLKPEDTAVYYCAAVGYVIYDYWVQGTQVTVSS”, the “polyreactivity (PSR sort gate)” value is given as “low polyreactivity”. The value for “QVQLVESGGGLVQAGGSLRLSSAASGRTFYFYAMGWYRQAPGKERELVADIRGITGSTYYADSVKGRFTISRDNAKNTVYLQMNSLKPEDTAVYYCNAYPYIARAPYEYWGQGTQVTVSS” was “high polyreactivity”. For the sequence “QVQLVESGGGLVQAGGSLRLSSAASGRTFYSNAMGWSRQAPGKERELVAAITSTDDSTYYADSVKGRFTISRDNAKNTVYLQMNSLKPEDTAVYYCNTDGLIAIRCVWWVEYDYWGQGTQVTVSS”, the “polyreactivity (PSR sort gate)” value is listed as “low polyreactivity”. On to “QVQLVESGGGLVQAGGSLRLSSAASGRTGVNAMGWDRHAPGKERELGAAINNGDSTYYADSVKGRFTISRDNAKNTVYLQMNSLTPEDTAVYDCAAGLDEGDYWQESDYWGQGTQVTVSS”, for which the “polyreactivity (PSR sort gate)” value is recorded as “low polyreactivity”. As for “QVQLVESGGGLVQAGGSLRLSSAASGRTLVNYAMGCYRQAPGKERELVAAISYSGGSTYYADSVKGRFTISRDYAKNTVYLQMNSLKPEDTAVYYCAAYYYQRYDYWGQGTQVTVSS”, the “polyreactivity (PSR sort gate)” value is on record as “high polyreactivity”. “QVQLVESGGGLVQAGGSLRLSSAASGRTYNVYAMGWSRQAPGKERELVAGITRASTNYADSVKGRFTISRDNAKNTVYLLMNSLKPEVTAVYYCAAKIFPKGDYWGQGTQVTVSS”: the “polyreactivity (PSR sort gate)” value is on record as “high polyreactivity”.

With “QVQLVESGGGLVQAGGSLRLSSAASGSIFFEYAMRWSRQAPGNEREWVASINRGGGSTYYADSVKGRFTISRDNAKNTVYLQMNSLKPEDTAVYYCAAQWKYRQSYLDYYWGQGTQVTVSS”, the “polyreactivity (PSR sort gate)” value is given as “low polyreactivity”. Consider “QVQLVESGGGLVQAGGSLRLSSAASGSIFGSYAMGWYRQAPGKERELVAAITSGGSTYADSVKGRFTISRDNAKNTVYLQMNSLKPEDTAVYYCNAKFYQSTSNLVQSEYDYWGQGTQVTVSS”, for which the “polyreactivity (PSR sort gate)” value is reported as “low polyreactivity”.

“QVQLVESGGGLVQAGGSLRLSSAASGSIFGVNAMGVYRQAPGKERELVASITGGDSTNYADSVKGRFTISRDNAKNTVYFQMNSLKPEDTAVYYCAKDHYYRYCAAEFVTEYLYGFVYEYDSWGQGTQVTVSS”: the “polyreactivity (PSR sort gate)” value was “low polyreactivity”. To “QVQLVESGGGLVQAGGSLRLSSAASGSIFQDNAMGWNRQAPGKERELVAAISVSGGSTYYADSVKGRFTISRDNAKNTVYLQMNSLKPEDTAVYYCAARARGYAWTYDYWGQGTQVTVSS” belongs “high polyreactivity”; to “QVQLVESGGGLVQAGGSLRLSSAASGSIFRSNAMGWYRQAHGKERELVAAITSGTRTYYADSVKGRFTISRDNAKNTVYLQMNSLKPEDTAVFYCATKGSKYVRGYWGQGTQVTVSS”, “high polyreactivity”; to “QVQLVESGGGLVQAGGSLRLSSAASGSIFRSYTMGWYRQAPGKERELVAAISGRAGSTYYADAVKGRVTISRDNAKNTVYLQMNSLKPEDTAVYYCAVKLGGRSQSYYWGQGTQVTVSS”, “high polyreactivity”. As to “QVQLVESGGGLVQAGGSLRLSSAASGSIFSYNVMGWYRQAPGKERELVAAISWNDGSTYYADSVKGRFTISRDNAKNTVYLQMNSLKPEDTAVYYCAAEYGRRWHNELDYWGQGTQVTVSS”, the “polyreactivity (PSR sort gate)” value is on record as “low polyreactivity”.

For the sequence “QVQLVESGGGLVQAGGSLRLSSAASGSIFTGSALGWYRQAPGKEREFFARITKRGVSTYYADSVKGRFTISRDKAKNTVYLHMNSLKPEDTAVYYCNADRKFPYGSYETHDYWGQGPQVTVSS”, the “polyreactivity (PSR sort gate)” value is “high polyreactivity”. The value for “QVQLVESGGGLVQAGGSLRLSSAASGSIFVPYAMGWYRQAPGKEREFVAAIYSGGGNTYYADSVKGRFTISRDNAKNTVYLQMNSLKPEDTAVYYCAAAYVYSSWSRYDYWGQGTQVTVSS” was “high polyreactivity”. The value for “QVQLVESGGGLVQAGGSLRLSSAASGSIFWYYAMGWYRQAPGKERELVADITIRGGRTYYADSVKGRFTISRDNAKNTVYFQMNSLKPEDTAVFYCAADWEYWGFGLYDYWGQGTQVTVSS” was “low polyreactivity”.

As to “QVQLVESGGGLVQAGGSLRLSSAASGSIFYQYAMGWYRQAPGKERQLVAAISRSGGSTYYAESVKGRFTISRDNAKNTVYLQMNSLIPEDTAVYYCATDIYSRWAGYKRSQYDYWGQGTQVTVSS”, the “polyreactivity (PSR sort gate)” value is listed as “high polyreactivity”. Consider “QVQLVESGGGLVQAGGSLRLSSAASGSIYYPYAMGWYRQAPGKERELVAAIRNGGSTYYADSVKGRFTISRDNAKNTVYLQMNSLKPEETAVYYCNAVYTGPTYGPHRKENYYWGQGTQVTVSS”, for which the “polyreactivity (PSR sort gate)” value was “high polyreactivity”. As for “QVQLVESGGGLVQAGGSLRLSSAASGSNFGYKAMGWYRQEPGKEREMVAAISYSGASTYYADSVKGRFTISRDNAKNTVYLQKHSLKPEDTAVYYCAAGWKRFSGRKHYYWGQGTQVTVSS”, the “polyreactivity (PSR sort gate)” value is reported as “high polyreactivity”. The value for “QVQLVESGGGLVQAGGSLRLSSAASGSNFSRNTMGWYRQAPGKERELVAAITRGGSTDYADSVKGRFTISRDNAKNTVDLQMNSRKPEDTAVYYCAKKNPGWGKFDYWGQGTQVTVSS” was “low polyreactivity”. The value for “QVQLVESGGGLVQAGGSLRLSSAASGSTFFSNAMGWYRQAPGKERELVATIRFGGGSTYADSVKGRFTISRDNAKNTVYLQMNSLKPEDTAVYYCAADDSDKRYTRSWYGYWGQGTQVAVSS” was “low polyreactivity”. Turning to “QVQLVESGGGLVQAGGSLRLSSAASGSTFKVNARGWYRQAPGKERELVAGITSSDSTKYADSVKGRFTISRDNAKNTVYLQMNSLKPEDTAVYYSAAETKFSRTSEGDYWGQGTQVTVSS”, the “polyreactivity (PSR sort gate)” value is listed as “low polyreactivity”. To “QVQLVESGGGLVQAGGSLRLSSAASGSTFNLYAMGWYRQAPGKERELVAAISRRGGSTYYADSVKGRFTISRDNAKNTVYLQMNSLKPEDTAVYYCAAVVVTGQGDKYDYWGQGTQVTVSS” belongs “high polyreactivity”; to “QVQLVESGGGLVQAGGSLRLSSAASGSTFNSYAMGWYRQAPGKERELVAGITSRGTSTYYADSVKGRFTISRDNAKNTVYLQMNSLKPEDTAVYYCNKYHYWASPMNYWGHGTQVTVSS”, “high polyreactivity”.

As to “QVQLVESGGGLVQAGGSLRLSSAASGSTFRFNAMGWYRQAPGKERELVATISSGGRTYYADSVKGSFTISRDNAKNTVYLQMNSLKPEDTAVYYCAARTGYFLGRFDYWGQGTQVTVSS”, the “polyreactivity (PSR sort gate)” value was “high polyreactivity”.

With “QVQLVESGGGLVQAGGSLRLSSAASGSTFWYYAMGWYRQAPGKERELVAGITQSGGSTYYADSVKGRFTISRDNAKNTVYLQMNSLKPEDTAVYYCAKDGRVSGDFDYWGQGTQVTVSS”, the “polyreactivity (PSR sort gate)” value is reported as “low polyreactivity”. The value for “QVQLVESGGGLVQAGGSLRLSSAASGSTIGGYAMGWYRQAPGKERELVAAITRSGGRTYYADSVKGRFTISRDNSKNTVYLQMNSLKPEDTAVYYCATLVTIGRYDSWGQGTQVTVSS” was “high polyreactivity”; that for “QVQLVESGGGLVQAGGSLRLSSAASGSTIGVNARGWYRQAPGKERELVAAISSSGSSTYADSVKGRFTISRDNAKNTVYLQMNSLKPEDTAVYYCNKEWYPYKHNYWGQGTQVTVSS” was “low polyreactivity”. As for “QVQLVESGGGLVQAGGSLRLSSAASGSTIRTNAMGWYRQAPGKATELVAAISKSGGRTYYADSVKGRFTISRDNAKNTVYFQMNSLKPEDTAVYYCNVPRDVVPKVRAHDYWGQGTQVTVSS”, the “polyreactivity (PSR sort gate)” value is “high polyreactivity”.

Consider “QVQLVESGGGLVQAGGSLRLSSAASGSTLTFNAMGWYRQAPGKERELVAAISWSDTDTYYADSVKGRFTISRDNAKNTVYLQMNSLKPEDTAVYYCAATVSAYEMDYWGQGTQVTVSS”, for which the “polyreactivity (PSR sort gate)” value is listed as “low polyreactivity”.

For “QVQLVESGGGLVQAGGSLRLSSAASGSTSPRNAMGWYRQAPGKERELVAAISSGGRTNYADSVKGRFTISRDNAKNTVYFQMHSLKPEDTAVYYCAAVVHSTYWAQGTQVTVSS”, the “polyreactivity (PSR sort gate)” value is “low polyreactivity”.

As for “QVQLVESGGGLVQAGGSLRLSSAASGTFWWYAMGWYRQAPGQEMELVASINRGGSTYYADSVKGRFTISRDNAKNTVYLQMNSLKPEDTAVYYCAAQVDRKYRWFNSWGQGTQVTVSS”, the “polyreactivity (PSR sort gate)” value was “high polyreactivity”. For the sequence “QVQLVESGGGLVQAGGSLRLSSAASGYIFDRYTMGWYRQAPGKERELVASISRRGGSTYYADSVKGRFTISRDNAKNTVYLQMNSLKPEDTAVYYCAAPNALGYLFQGFDYWGLGTQVTVSS”, the “polyreactivity (PSR sort gate)” value was “high polyreactivity”. “QVQLVESGGGLVQAGGSLRLSSAASGYIFGANGMGWYRQAPGKERELVATITSGGRTYYADSVKGRFTISRDNAKNNVYLQMNSLKPEDTAVYYCAAKLQYRWTWGYYYWGQGTQVTVSS”: the “polyreactivity (PSR sort gate)” value was “high polyreactivity”.
